The values that follow come from the supplement of paper PMC11246515.

This series can be described thus: total protein half-life in vivo (active degradation + dilution); higher = more stable protein.
Where [1] appears, read: wild type E. coli NCM3722, growth: C-lim chemostat, doubling time 3 h.
[2] abbreviates: wild type E. coli NCM3722, growth: C-lim chemostat, doubling time 6 h.
The mark [3] stands for this setting: wild type E. coli NCM3722, growth: P-lim chemostat, doubling time 12 h.
[4] abbreviates: E. coli NCM3722 delta-clpP, growth: N-lim chemostat, doubling time 6 h.
[5] abbreviates: E. coli NCM3722 delta-hslV, growth: N-lim chemostat, doubling time 6 h.
Where [6] appears, read: E. coli NCM3722 delta-smpB, growth: N-lim chemostat, doubling time 6 h.
[7] abbreviates: wild type E. coli NCM3722, growth: C-lim chemostat, doubling time 12 h.
The mark [8] stands for this setting: wild type E. coli NCM3722, growth: N-lim chemostat, doubling time 12 h.
Where [9] appears, read: wild type E. coli NCM3722, growth: P-lim chemostat, doubling time 6 h.
The mark [10] stands for this setting: E. coli NCM3722 delta-clpP delta-lon delta-hslV, growth: N-lim chemostat, doubling time 6 h.
Setting [11] is: E. coli NCM3722 delta-lon, growth: N-lim chemostat, doubling time 6 h.
Where [12] appears, read: wild type E. coli NCM3722, growth: N-lim chemostat, doubling time 6 h.

± gives the standard deviation of the averaged measurements.

Turning to “MKISRETLHQLIENKLCQAGLKREHAATVAEVLVYADARGIHSHGAVRVEYYAERISKGGTNREPEFRLEETGPCSAILHADNAAGQVAAKMGMEHAIKTAQQNGVAVVGISRMGHSGAISYFVQQAARAGFIGISMCQSDPMVVPFGGAEIYYGTNPLAFAAPGEGDEILTFDMATTVQAWGKVLDARSRNMSIPDTWAVDKNGVPTTDPFAVHALLPAAGPKGYGLMMMIDVLSGVLLGLPFGRQVSSMYDDLHAGRNLGQLHIVINPNFFSSSELFRQHLSQTMRELNAITPAPGFNQVYYPGQDQDIKQRKAAVEGIEIVDDIYQYLISDALYNTSYETKNPFAQ”, the “total protein half-life in vivo” value is, setting by setting: under setting [1], 2.88 h; under setting [2], 5.52 ± 0.59 h; under setting [3], > 16 h.

With “MNTSHVRVVTHMCGFLVWLYSLSMLPPMVVALFYKEKSLFVFFITFVIFFCIGGGAWYTTKKSGIQLRTRDGFIIIVMFWILFSVISAFPLWIDSELNLTFIDALFEGVSGITTTGATVIDDVSSLPRAYLYYRSQLNFIGGLGVIVLAVAVLPLLGIGGAKLYQSEMPGPFKDDKLTPRLADTSRTLWITYSLLGIACIVCYRLAGMPLFDAICHGISTVSLGGFSTHSESIGYFNNYLVELVAGSFSLLSAFNFTLWYIVISRKTIKPLIRDIELRFFLLIALGVIIVTSFQVWHIGMYDLHGSFIHSFFLASSMLTDNGLATQDYASWPTHTIVFLLLSSFFGGCIGSTCGGIKSLRFLILFKQSKHEINQLSHPRALLSVNVGGKIVTDRVMRSVWSFFFLYTLFTVFFILVLNGMGYDFLTSFATVAACINNMGLGFGATASSFGVLNDIAKCLMCIAMILGRLEIYPVIILFSGFFWRS”, the “total protein half-life in vivo” value is > 8 h under setting [4]; 5.64 ± 0.43 h under setting [5]; 6.77 h under setting [6]; > 4 h under setting [1]; 13.5 h under setting [7]; > 16 h under setting [8]. Besides, under setting [9], the “total protein half-life in vivo” value was > 8 h.

“MQKKSIYVAYTGGTIGMQRSEQGYIPVSGHLQRQLALMPEFHRPEMPDFTIHEYTPLMDSSDMTPEDWQHIAEDIKAHYDDYDGFVILHGTDTMAYTASALSFMLENLGKPVIVTGSQIPLAELRSDGQINLLNALYVAANYPINEVTLFFNNRLYRGNRTTKAHADGFDAFASPNLPPLLEAGIHIRRLNTPPAPHGEGELIVHPITPQPIGVVTIYPGISADVVRNFLRQPVKALILRSYGVGNAPQNKAFLQELQEASDRGIVVVNLTQCMSGKVNMGGYATGNALAHAGVIGGADMTVEATLTKLHYLLSQELDTETIRKAMSQNLRGELTPDD [P0A962]”: the “total protein half-life in vivo” value by setting is: under setting [10], 5.54 ± 0.6 h; under setting [4], 5.31 ± 0.36 h; under setting [5], 6.03 ± 0.21 h; under setting [11], 5.69 ± 0.17 h; under setting [6], 5 ± 0.11 h; under setting [1], 3.18 ± 0.034 h. The “total protein half-life in vivo” value under setting [2] is 5.81 ± 0.83 h; the “total protein half-life in vivo” value under setting [7] was found to be 12 ± 1.2 h; the “total protein half-life in vivo” value under setting [12] was determined as 5.74 ± 0.28 h; the “total protein half-life in vivo” value under setting [8] was 10.9 ± 0.4 h; the “total protein half-life in vivo” value under setting [9] was 5.81 ± 0.6 h; the “total protein half-life in vivo” value under setting [3] is 11.5 ± 1.4 h.

For the sequence “MKADNPFDLLLPAAMAKVAEEAGVYKATKHPLKTFYLAITAGVFISIAFVFYITATTGTGTMPFGMAKLVGGICFSLGLILCVVCGADLFTSTVLIVVAKASGRITWGQLAKNWLNVYFGNLVGALLFVLLMWLSGEYMTANGQWGLNVLQTADHKVHHTFIEAVCLGILANLMVCLAVWMSYSGRSLMDKAFIMVLPVAMFVASGFEHSIANMFMIPMGIVIRDFASPEFWTAVGSAPENFSHLTVMNFITDNLIPVTIGNIIGGGLLVGLTYWVIYLRENDHH [P0AC23]”, the “total protein half-life in vivo” value under setting [10] was 6.43 ± 0.36 h; the “total protein half-life in vivo” value under setting [4] is 7.27 ± 0.55 h; the “total protein half-life in vivo” value under setting [11] was 5.87 ± 0.32 h; the “total protein half-life in vivo” value under setting [6] was found to be 6.66 ± 1.2 h; the “total protein half-life in vivo” value under setting [1] stood at 3.67 h; the “total protein half-life in vivo” value under setting [12] came to 6.07 ± 0.59 h. Also, the “total protein half-life in vivo” value under setting [8] was found to be 11.5 ± 0.42 h and the “total protein half-life in vivo” value under setting [9] was 6.402 ± 0.033 h.

On to “MHDANIRVAIAGAGGRMGRQLIQAALALEGVQLGAALEREGSSLLGSDAGELAGAGKTGVTVQSSLDAVKDDFDVFIDFTRPEGTLNHLAFCRQHGKGMVIGTTGFDEAGKQAIRDAAADIAIVFAANFSVGVNVMLKLLEKAAKVMGDYTDIEIIEAHHRHKVDAPSGTALAMGEAIAHALDKDLKDCAVYSREGHTGERVPGTIGFATVRAGDIVGEHTAMFADIGERLEITHKASSRMTFANGAVRSALWLSGKESGLFDMRDVLDLNNL”, for which the “total protein half-life in vivo” value was determined as 5.49 ± 0.1 h under setting [10]; 4.89 ± 0.007 h under setting [4]; 5.04 ± 0.21 h under setting [5]; 5.38 ± 0.62 h under setting [11]; 4.76 ± 0.23 h under setting [6]; 2.91 ± 0.068 h under setting [1]. Further, the “total protein half-life in vivo” value by setting is: under setting [2], 6.1 ± 0.19 h; under setting [7], 12 ± 0.68 h; under setting [12], 5.092 ± 0.023 h; under setting [8], 9.28 ± 0.75 h; under setting [9], 5.71 ± 0.34 h; under setting [3], 12.5 ± 1.2 h.

For the sequence “MKWDWIFFDADETLFTFDSFTGLQRMFLDYSVTFTAEDFQDYQAVNKPLWVDYQNGAITSLQLQHGRFESWAERLNVEPGKLNEAFINAMAEICTPLPGAVSLLNAIRGNAKIGIITNGFSALQQVRLERTGLRDYFDLLVISEEVGVAKPNKKIFDYALEQAGNPDRSRVLMVGDTAESDILGGINAGLATCWLNAHHREQPEGIAPTWTVSSLHELEQLLCKH [P0A8Y1]”, the “total protein half-life in vivo” value was 5.28 ± 0.098 h under setting [10]; 0.513 h under setting [4]; 0.534 h under setting [11]; 0.471 ± 0.024 h under setting [6]; 0.631 ± 0.016 h under setting [1]; 0.671 h under setting [2]. Also, the “total protein half-life in vivo” value was found to be 2.97 h under setting [7], 1.11 h under setting [12], 1.51 h under setting [8] and 0.949 ± 0.33 h under setting [9].

As to “MGQQKQRNRRWVLASRPHGAPVPENFRLEEDDVATPGEGQVLLRTVYLSLDPYMRGRMSDEPSYSPPVDIGGVMVGGTVSRVVESNHPDYQSGDWVLGYSGWQDYDISSGDDLVKLGDHPQNPSWSLGVLGMPGFTAYMGLLDIGQPKEGETLVVAAATGPVGATVGQIGKLKGCRVVGVAGGAEKCRHATEVLGFDVCLDHHADDFAEQLAKACPKGIDIYYENVGGKVFDAVLPLLNTSARIPVCGLVSSYNATELPPGPDRLPLLMATVLKKRIRLQGFIIAQDYGHRIHEFQREMGQWVKEDKIHYREEITDGLENAPQTFIGLLKGKNFGKVVIRVAGDD”, the “total protein half-life in vivo” value runs as follows: under setting [10], 4.9643 ± 0.002 h; under setting [4], 5.13 ± 1.2 h; under setting [5], 5.03 ± 0.36 h; under setting [11], 4.74 ± 0.34 h; under setting [6], 4.16 ± 0.6 h; under setting [1], 3.3 ± 0.29 h. The “total protein half-life in vivo” value runs as follows: under setting [2], 5.53 ± 0.19 h; under setting [7], 10.3 ± 1 h; under setting [12], 4.48 ± 0.35 h; under setting [8], 7.42 ± 0.32 h; under setting [9], 5.59 ± 0.22 h; under setting [3], 10.9 ± 0.62 h.

Regarding “MSDWNPSLYLHFSAERSRPAVELLARVPLENVEYVADLGCGPGNSTALLQQRWPAARITGIDSSPAMIAEARSALPDCQFVEADIRNWQPVQALDLIFANASLQWLPDHYELFPHLVSLLNPQGVLAVQMPDNWLEPTHVLMREVAWEQNYPDRGREPLAGVHAYYDILSEAGCEVDIWRTTYYHQMPSHQAIIDWVTATGLRPWLQDLTESEQQLFLKRYHQMLEEQYPLQENGQILLAFPRLFIVARRME”, the “total protein half-life in vivo” value under setting [10] came out at 3.89 ± 0.51 h; the “total protein half-life in vivo” value under setting [4] is 5.9 ± 1.7 h; the “total protein half-life in vivo” value under setting [5] was found to be 4.82 ± 0.7 h; the “total protein half-life in vivo” value under setting [11] amounted to 6.54 ± 1.9 h; the “total protein half-life in vivo” value under setting [6] worked out at 3.62 ± 0.042 h; the “total protein half-life in vivo” value under setting [1] is 3.29 ± 0.6 h. The “total protein half-life in vivo” value under setting [7] is 9.97 ± 1.8 h; the “total protein half-life in vivo” value under setting [12] amounted to 4.14 ± 0.17 h; the “total protein half-life in vivo” value under setting [8] is 4.96 h; the “total protein half-life in vivo” value under setting [9] was 5.89 ± 0.061 h; the “total protein half-life in vivo” value under setting [3] came out at 11 ± 0.27 h.
